In general, EC50 refers to the concentration needed to bring the measured effect to its halfway point. Broadly, the Kd is a measure of binding affinity in units of concentration. For orientation: koff means a measure of how fast the partners let go of each other. As a reminder, the kon is a measure of how fast the partners come together. For orientation: EC50 (read off the curve) means the midpoint of the concentration-response curve. What is called IC50 is the midpoint of a concentration-inhibition curve.

Bounds are passed on as bounds.

Experimental findings from patent US20210015937A1 (CRESCENDO BIOLOGICS, published 2021) are described below.

Assay [1] addresses T1, recombinant human PD-1 Fc chimera (human, UniProt Q15116 25-167).
T1 construct: Bought Fc chimera; also called human PD-1 (R&D systems cat no. 1086-PD); PD1 antigen
The experiment in a line: HTRF binding; His-tagged construct with PD-1-Fc, anti-human-Fc cryptate and anti-His-D2. Here is the method:
Binding to PD-1 was measured by HTRF (homogeneous time resolved fluorescence). Serially diluted HIS-tagged constructs were prepared in assay buffer containing PBS, 0.1% BSA and 0.4M Potassium Fluoride. […] Time-resolved fluorescent emission at 620 nm and 665 nm was measured following excitation at 337 nm on the BMG PHERAstar plate reader. The HTRF ratio were calculated ((665 nm emission/620 nm emission)*10000) and the data corrected for (non-specific binding) to give the specific binding signal. EC50 were calculated from the titration curve (table 8 below).
On the technique in general: TR-FRET usually uses a lanthanide donor and a delayed reading to cut background.

The target in assay [2] is T2, recombinant human LAG-3-Fc (human, UniProt P18627 23-450).
T2 construct: also called human LAG-3 (R&D Systems cat no. 2319-L3); LAG3 antigen
T2 sequence: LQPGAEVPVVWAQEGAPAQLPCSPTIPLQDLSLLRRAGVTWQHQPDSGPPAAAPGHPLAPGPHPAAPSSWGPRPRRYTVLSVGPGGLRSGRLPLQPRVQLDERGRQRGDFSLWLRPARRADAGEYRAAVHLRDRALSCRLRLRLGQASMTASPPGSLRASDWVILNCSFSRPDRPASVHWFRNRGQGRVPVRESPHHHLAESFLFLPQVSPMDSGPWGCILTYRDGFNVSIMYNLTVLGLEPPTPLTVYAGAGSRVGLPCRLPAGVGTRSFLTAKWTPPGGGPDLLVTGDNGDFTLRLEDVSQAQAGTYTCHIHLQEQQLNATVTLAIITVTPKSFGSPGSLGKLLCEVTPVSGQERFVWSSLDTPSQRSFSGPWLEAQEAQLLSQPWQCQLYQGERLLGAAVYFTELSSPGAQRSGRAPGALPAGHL
Nature of the assay: BLI (Octet); human LAG-3-Fc captured on protein G biosensors, 1:1 fit. As to the method: Binding kinetics for multi-valent and bispecific VH were also measured in real-time bio-layer interferometer based biosensor Octet (ForteBio). […] All the binding studies were performed in HBS-ET Octet kinetics buffer. Biosensors were washed in Octet kinetics buffer in between different steps. […] The contact time for each of the association steps was 150 seconds and the dissociation step was 400 seconds. […] To compare the constructs, kinetic association (kₐ) and dissociation (kd) rate constants were determined by processing and fitting the data to a 1:1 binding model using ForteBio Analysis software.
In general terms: BLI is a label-free optical method that tracks binding on a fibre tip over time.

The target in assay [3] is T3, LAG-3 and PD-1 on activated human T cells (human, UniProt P18627 23-525; Q15116 25-288).
T3 construct: also called huCD4+ T cells; huCD8+ T cells
T3 sequence (Q15116 25-288 limits assumed, one chain of several): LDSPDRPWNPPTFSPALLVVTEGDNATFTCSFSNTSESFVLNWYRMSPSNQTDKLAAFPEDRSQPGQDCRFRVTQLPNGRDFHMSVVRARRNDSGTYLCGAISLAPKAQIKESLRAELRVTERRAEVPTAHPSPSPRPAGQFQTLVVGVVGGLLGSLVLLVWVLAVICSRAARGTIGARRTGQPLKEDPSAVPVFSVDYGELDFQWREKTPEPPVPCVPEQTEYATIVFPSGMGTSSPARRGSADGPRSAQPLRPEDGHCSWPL
The experiment in a line: flow cytometry (Intellicyte) on anti-CD3/anti-CD28 stimulated human CD4+ T cells; His-tagged VH detected with anti-HIS biotin and streptavidin AlexaFluor488. Here is the method: (§1) FIG. 2. CD4+ T cells were stimulated with anti-CD3 and anti-CD28. Cells were stained with HIS tagged VH plus anti-HIS tag labelled with biotin and streptavidin AlexaFluor488. Cells were analysed using Intellicyte® cytometer.
(§2) Binding onto human activated T cells was measured by cytometry. PBMC or magnetically isolated T cells were isolated from leukocytes cones and cells were incubated in 96 well plates coated with anti-CD3 (OKT3) at 5 μg/ml. Anti-CD28 (CD28.2) was added at 1 μg/ml in RPMI media and foetal bovine serum. After 72-96 hours, cells were harvested and stained using standard flow cytometry methods. […] Fluorescently labelled anti-CD4 and anti-CD8 were included in PBMC cultures and a live/dead dye. Stained cells were analysed using the IQue cytometer (Intellicyte). EC50 were calculated from the titration curve of median fluorescence of Humabody, gating on CD4+ or CD8+ cells if using mixed cells.

Assay [4] concerns the target T2, recombinant human LAG-3-Fc. Nature of the assay: HTRF binding; His-tagged construct with LAG-3-Fc, anti-human-Fc cryptate and anti-His-D2.
Assay [5] concerns the target T4, human PD-1 expressed on cells (human, UniProt Q15116 25-288). Nature of the assay: cell-based or functional assay.
Assay [6] addresses T5, human LAG-3 expressed on cells (human, UniProt P18627 23-525).
T5 sequence: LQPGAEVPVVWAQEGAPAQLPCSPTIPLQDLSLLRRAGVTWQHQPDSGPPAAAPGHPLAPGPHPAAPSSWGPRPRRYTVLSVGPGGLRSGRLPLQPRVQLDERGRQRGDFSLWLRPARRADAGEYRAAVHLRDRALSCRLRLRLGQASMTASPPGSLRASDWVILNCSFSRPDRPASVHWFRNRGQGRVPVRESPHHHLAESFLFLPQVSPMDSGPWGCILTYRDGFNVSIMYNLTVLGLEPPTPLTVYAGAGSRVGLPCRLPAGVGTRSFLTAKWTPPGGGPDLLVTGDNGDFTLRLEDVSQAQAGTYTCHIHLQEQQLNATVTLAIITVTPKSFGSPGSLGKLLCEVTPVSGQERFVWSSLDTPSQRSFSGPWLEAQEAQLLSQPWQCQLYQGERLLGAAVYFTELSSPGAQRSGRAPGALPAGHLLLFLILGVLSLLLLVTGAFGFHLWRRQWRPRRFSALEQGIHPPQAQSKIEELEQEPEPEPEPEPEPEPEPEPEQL
The experiment in a line: cell-based or functional assay.

For assay [7], the target named is T2, recombinant human LAG-3-Fc. The experiment in a line: competition ELISA; LAG-3-Fc pre-incubated with VH, binding to coated LSECtin. From the text:
(§3) The plate was blocked with 3% Marvel skimmed milk powder in PBS. […] Wash steps were done 3 times with PBS 0.05% Tween. Colour was developed using TMB and 0.5M sulphuric acid solution.
In general terms: In an ELISA, binding on a coated surface is turned into a signal by an enzyme label.

Assay [8] deals with T4, human PD-1 expressed on cells. The experiment in a line: cell-based or functional assay. The source holds these as a separate data set.
Assay [9] has as its target T2, recombinant human LAG-3-Fc. Nature of the assay: competition ELISA; LAG-3-Fc pre-incubated with VH, binding to coated Galectin-3.
Source text: as §3

The target of assay [10] is T4, human PD-1 expressed on cells. The experiment in a line: flow cytometry (Intellicyte) on anti-CD3/anti-CD28 stimulated human CD4+ T cells; His-tagged VH detected with anti-HIS biotin and streptavidin AlexaFluor488. Here is the method:
as §1, §2

The target is the same in assay [11]. The experiment in a line: FMAT inhibition of human Fc tagged PD-L1 binding to CHO human PD-1 cells. Here is the method: All reagents and serially diluted VH were prepared in FMAT assay buffer. […] Plates were incubated for 2 hours at room temperature then fluorescence measured in the FL2 (502 nm-537 nm) and FL5 (677-800 nm) channels on the Mirrorball plate reader (TTP) following excitation at 488 nm and 640 nm. Data was expressed as a % of the total binding control (i.e. % control) after subtraction of the background signal determined from the non-specific binding control wells.

T4 sequence (Q15116 25-288 limits assumed): as the sequence (Q15116 25-288 limits assumed, one chain of several) above
T1 sequence (Q15116 25-167 limits assumed, change not shown): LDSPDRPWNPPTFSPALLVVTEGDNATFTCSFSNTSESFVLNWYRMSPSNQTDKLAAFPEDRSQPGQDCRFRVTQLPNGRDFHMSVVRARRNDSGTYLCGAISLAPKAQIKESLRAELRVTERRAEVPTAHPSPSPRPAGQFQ

B1: VH1.1-6GS-VH1.1-9GS-VH2.63-His6 (bispecific antibody)
chain: EVQLVESGGGVVRPGGSLRLSCSASGFTFDDYGMSWVRQAPGKGLEWVSGIHWNGGNSGYADSVKGRFTISRDNAKNSLYLQMNSLRAEDTALYYCARIPREDCSSASCYTDAIDFWGPGTMVTVSSGGGGSGGGGSGGGGSGGGGSGGGGSGGGGSEVQLVESGGGVVRPGGSLRLSCSASGFTFDDYGMSWVRQAPGKGLEWVSGIHWNGGNSGYADSVKGRFTISRDNAKNSLYLQMNSLRAEDTALYYCARIPREDCSSASCYTDAIDFWGPGTMVTVSSGGGGSGGGGSGGGGSGGGGSGGGGSGGGGSGGGGSGGGGSGGGGSEVQLVESGGGLVKPGGSLRLSCAASGFTFSDSSMTWMRQAPGKGLEWVSYISSGGGVKFYTDSVKGRFTISRDNAKNSLYLQMNSLRADDTAVYYCAREAPLRLGESPHDAFDISGQGTMVTVSSAAAHHHHHH
notes: Single-chain fusion of two anti-LAG-3 VH 1.1 and one anti-PD-1 VH 2.63; The entry includes AAA-His6; also called 1.1-6GS-1.1-9GS-2.63
Consider B1, for which the EC50 in assay [1] amounted to 0.6 nM. Moreover, in assay [2], the dissociation constant (Kd) was found to be 0.397 nM, the koff was 0.000303 s⁻¹ and the kon came to 762000 M⁻¹ s⁻¹. Further, the “EC50 (read off the curve)” value in [3] is approximately 2 nM. Moreover, the EC50 in assay [4] was found to be 0.78 nM. Besides, the “EC50 (M), NFAT-Luciferase Reporter Gene assay (PD-1:PD-L1)” value (“EC50 (M) … (PD-1:PD-L1)” below) in [5] is 3e-08 M. Besides, in assay [6], the “EC50 (M), NFAT-Luciferase Reporter Gene assay (LAG-3:MHCII)” value was determined as 3.2e-09 M. Also, the IC50 in [7] came out at 54 nM. In assay [8], the “potency in the PD-1:PD-L1 NFAT-luciferase reporter assay, fold lower than monoclonal antibodies” value was more than 30 fold. For the same molecule, the IC50 in assay [9] turned out to be 38 nM.

B2: VH1.1-6GS-VH1.1-6GS-VH2.63-His6 (bispecific antibody)
chain: EVQLVESGGGVVRPGGSLRLSCSASGFTFDDYGMSWVRQAPGKGLEWVSGIHWNGGNSGYADSVKGRFTISRDNAKNSLYLQMNSLRAEDTALYYCARIPREDCSSASCYTDAIDFWGPGTMVTVSSGGGGSGGGGSGGGGSGGGGSGGGGSGGGGSEVQLVESGGGVVRPGGSLRLSCSASGFTFDDYGMSWVRQAPGKGLEWVSGIHWNGGNSGYADSVKGRFTISRDNAKNSLYLQMNSLRAEDTALYYCARIPREDCSSASCYTDAIDFWGPGTMVTVSSGGGGSGGGGSGGGGSGGGGSGGGGSGGGGSEVQLVESGGGLVKPGGSLRLSCAASGFTFSDSSMTWMRQAPGKGLEWVSYISSGGGVKFYTDSVKGRFTISRDNAKNSLYLQMNSLRADDTAVYYCAREAPLRLGESPHDAFDISGQGTMVTVSSAAAHHHHHH
notes: Single-chain fusion of two anti-LAG-3 VH 1.1 and one anti-PD-1 VH 2.63; The entry includes AAA-His6; also called 1.1-6GS-1.1-6GS-2.63
Turning to B2, in [1], the EC50 is 0.59 nM. In addition, in assay [2], the Kd amounted to 0.399 nM, the koff turned out to be 0.000305 s⁻¹ and the kon amounted to 764000 M⁻¹ s⁻¹. For the same molecule, the EC50 in assay [4] turned out to be 0.51 nM. In addition, the “EC50 (M) … (PD-1:PD-L1)” value in assay [5] was 4.2e-08 M. Also, the “EC50 (M), NFAT-Luciferase Reporter Gene assay (LAG-3:MHCII)” value in assay [6] came out at 3.3e-09 M. Also, the “potency in the PD-1:PD-L1 NFAT-luciferase reporter assay, fold lower than monoclonal antibodies” value in assay [8] was more than 30 fold.

B3: VH 2.63 (VHH)
VHH: EVQLVESGGGLVKPGGSLRLSCAASGFTFSDSSMTWMRQAPGKGLEWVSYISSGGGVKFYTDSVKGRFTISRDNAKNSLYLQMNSLRADDTAVYYCAREAPLRLGESPHDAFDISGQGTMVTVSS
notes: Human VH single domain antibody against PD-1
Take B3: the “EC50 (read off the curve)” value in assay [10] is approximately 2 nM. In [11], this molecule had an IC50 of 4.5 nM. Also, the “EC50 (M) … (PD-1:PD-L1)” value in [5] worked out at 1.2e-08 M.
